Source: patent US20260232827A1 (Zymeworks, published 2026)
Substitutions are numbered along the chain they refer to. Read-outs that look alike come from different tables or passages of the source.

Key:
[1] = molecular target: T1, human NaPi2b (sodium-dependent phosphate transporter 2B) (human, UniProt O95436 1-690); assay: cell-based or functional assay
T1 sequence: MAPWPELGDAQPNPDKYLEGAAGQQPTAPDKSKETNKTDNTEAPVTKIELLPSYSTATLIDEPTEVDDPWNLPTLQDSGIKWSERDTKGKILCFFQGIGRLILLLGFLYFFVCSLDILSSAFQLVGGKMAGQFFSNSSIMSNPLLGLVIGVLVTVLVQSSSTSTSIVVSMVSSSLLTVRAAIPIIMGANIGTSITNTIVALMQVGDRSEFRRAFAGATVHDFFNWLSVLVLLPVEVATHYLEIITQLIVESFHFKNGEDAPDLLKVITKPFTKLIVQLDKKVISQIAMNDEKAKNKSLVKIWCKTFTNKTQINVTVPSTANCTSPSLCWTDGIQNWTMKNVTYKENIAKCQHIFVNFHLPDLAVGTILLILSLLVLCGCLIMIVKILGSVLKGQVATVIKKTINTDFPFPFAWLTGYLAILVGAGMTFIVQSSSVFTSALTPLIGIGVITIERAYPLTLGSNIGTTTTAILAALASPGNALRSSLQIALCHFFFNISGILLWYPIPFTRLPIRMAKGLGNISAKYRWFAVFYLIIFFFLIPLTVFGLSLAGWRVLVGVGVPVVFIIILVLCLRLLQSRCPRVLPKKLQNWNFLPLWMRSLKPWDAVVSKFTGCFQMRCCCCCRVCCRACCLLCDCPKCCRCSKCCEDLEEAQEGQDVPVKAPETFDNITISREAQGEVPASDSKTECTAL

[2] = molecular target: T2, human sodium-dependent phosphate transporter 2B (NaPi2b) (human, UniProt O95436 1-690); assay: flow cytometry, IGROV-1 cells (endogenous NaPi2b); apparent Kd
T2 construct: UniProt ID is given as 095436 [sic]; also called hNaPi2b; Hu NaPi2b
T2 sequence: T1 sequence

[3] = molecular target: T2, human sodium-dependent phosphate …; assay: flow cytometry, IGROV-1 cells (endogenous NaPi2b); set-up: unit not given here
[4] = molecular target: T3, human sodium-dependent phosphate transporter 2B (NaPi2b) (human, UniProt O95436 1-690); assay: cell-based or functional assay
T3 sequence: T1 sequence

[5] = molecular target: T3, human sodium-dependent phosphate …; assay: cell-based or functional assay; remark: listed apart in the source
[6] = molecular target: T3, human sodium-dependent phosphate …; assay: cell-based or functional assay; remark: listed apart in the source
[7] = molecular target: T3, human sodium-dependent phosphate …; assay: cell-based or functional assay; remark: listed apart in the source

B1: palivizumab (anti-RSV antibody, v21995) (antibody, human IgG1, kappa, V domains shown)
VH: QVTLRESGPALVKPTQTLTLTCTFSGFSLSTSGMSVGWIRQPPGKALEWLADIWWDDKKDYNPSLKSRLTISKDTSKNQVVLKVTNMDPADTATYYCARSMITNWYFDVWGAGTTVTVSS
VL: DIQMTQSPSTLSASVGDRVTITCKSQLSVGYMHWYQQKPGKAPKLLIYDTSKLASGVPSRFSGSGSGTEFTLTISSLQPDDFATYYCFQGSGYPFTFGGGTKLEIKR
[1]
  Internalized Fluorescence Fold-Over Untreated, H441, 4 h, 2.5 nM: 1 fold
  Internalized Fluorescence Fold-Over Untreated, H441, 24 h, 2.5 nM: 1.1 fold
  Internalized Fluorescence Fold-Over Untreated, HCC-78, 4 h, 2.5 nM: 1 fold
  Internalized Fluorescence Fold-Over Untreated, HCC-78, 24 h, 2.5 nM: 1.1 fold
  Internalized Fluorescence Fold-Over Untreated, IGROV-1, 4 h, 2.5 nM: 0.9 fold
  Internalized Fluorescence Fold-Over Untreated, IGROV-1, 24 h, 2.5 nM: 1 fold

B2: v29455 (H2L2) (antibody, human IgG1, kappa, V domains shown)
VH: QVQLVQSGAEVKKPGASVKVSCKASGFTFTSYNVHWVRQAPGQGLEWIAAISPGNGDLSYAQKFQGRVTMTVDTSTSTVYMELSSLRSEDTAVYYCARGRTGMGAVDYWGQGTLVTVSS
VL: DVQMTQSPSSLSASVGDRVTITCRASQDVYSYLNWYQQKPGKAVKLLIYYTSRLQSGVPSRFSGSGSGTDYTLTISSLQPEDFATYYCQQYNIFPWTFGQGTKLEIKR
notes: Humanized IgG1/kappa
[2]
  Kd: 1.18 nM
[3]
  Bmax: 41900

B3: v29458 (H3L1) (antibody, human IgG1, kappa, V domains shown)
VH: B2 VH with V20M, V68A, M70L, V79A
VL: B2 VL with V2I, V44P, Y71F
notes: Humanized IgG1/kappa
[2]
  Kd: 1.39 nM
[3]
  Bmax: 40800

B4: v29459 (H2L1) (antibody, human IgG1, kappa, V domains shown)
VH: B2 VH
VL: B2 VL with V2I, V44P, Y71F
notes: Humanized IgG1/kappa
[2]
  Kd: 1.61 nM
[3]
  Bmax: 40900

B5: v29453 (H4L2) (antibody, human IgG1, kappa, V domains shown)
VH: B2 VH with V20M, V68A, M70L, T74R, V79A
VL: B2 VL
notes: Humanized IgG1/kappa; clones CL_#21506 and CL_#21508
[2]
  Kd: 0.82 nM
[3]
  Bmax: 44500

B6: v29460 (H1L1) (antibody, human IgG1, kappa, V domains shown)
VH: B2 VH with I48M, A49G, V72R
VL: B2 VL with V2I, V44P, Y71F
notes: Humanized IgG1/kappa
[2]
  Kd: 1.67 nM
[3]
  Bmax: 40100

B7: v29450 (H3L3) (antibody, human IgG1, kappa, V domains shown)
VH: B2 VH with V20M, V68A, M70L, V79A
VL: B2 VL with F83I
notes: Humanized IgG1/kappa
[2]
  Kd: 0.96 nM
[3]
  Bmax: 43800

B8: v29454 (H3L2) (antibody, human IgG1, kappa, V domains shown)
VH: B2 VH with V20M, V68A, M70L, V79A
VL: B2 VL
notes: Humanized IgG1/kappa
[2]
  Kd: 0.92 nM
[3]
  Bmax: 42300

B9: v29457 (H4L1) (antibody, human IgG1, kappa, V domains shown)
VH: B2 VH with V20M, V68A, M70L, T74R, V79A
VL: B2 VL with V2I, V44P, Y71F
notes: Humanized IgG1/kappa; clones CL_#21506 and CL_#21507
[2]
  Kd: 1.73 nM
[3]
  Bmax: 44500

B10: v29449 (H4L3) (antibody, human IgG1, kappa, V domains shown)
VH: B2 VH with V20M, V68A, M70L, T74R, V79A
VL: B2 VL with F83I
notes: Humanized IgG1/kappa
[2]
  Kd: 0.79 nM
[3]
  Bmax: 44500

B11: v29451 (H2L3) (antibody, human IgG1, kappa, V domains shown)
VH: B2 VH
VL: B2 VL with F83I
notes: Humanized IgG1/kappa
[2]
  Kd: 1.49 nM
[3]
  Bmax: 46200

B12: v18993 (lifastuzumab)-DL2 (antibody, human IgG1, kappa)
heavy 1: GEVQLVESGGGLVQPGGSLRLSCAASGFSFSDFAMSWVRQAPGKGLEWVATIGRVAFHTYYPDSMKGRFTISRDNSKNTLYLQMNSLRAEDTAVYYCARHRGFDVGHFDFWGQGTLVTVSSASTKGPSVFPLAPSSKSTSGGTAALGCLVKDYFPEPVTVSWNSGALTSGVHTFPAVLQSSGLYSLSSVVTVPSSSLGTQTYICNVNHKPSNTKVDKKVEPKSCDKTHTCPPCPAPELLGGPSVFLFPPKPKDTLMISRTPEVTCVVVDVSHEDPEVKFNWYVDGVEVHNAKTKPREEQYNSTYRVVSVLTVLHQDWLNGKEYKCKVSNKALPAPIEKTISKAKGQPREPQVYVYPPSRDELTKNQVSLTCLVKGFYPSDIAVEWESNGQPENNYKTTPPVLDSDGSFALVSKLTVDKSRWQQGNVFSCSVMHEALHNHYTQKSLSLSPG
heavy 2: not shown
light: GDIQMTQSPSSLSASVGDRVTITCRSSETLVHSSGNTYLEWYQQKPGKAPKLLIYRVSNRFSGVPSRFSGSGSGTDFTLTISSLQPEDFATYYCFQGSFNPLTFGQGTKVEIKRTVAAPSVFIFPPSDEQLKSGTASVVCLLNNFYPREAKVQWKVDNALQSGNSQESVTEQDSKDSTYSLSSTLTLSKADYEKHKVYACEVTHQGLSSPVTKSFNRGEC
modifications: as above; maleimide functionalized auristatin drug linker (DL2); sites and DAR not stated
notes: also called lifastuzumab-DL2 ADC
[2]
  Kd: 3 nM
[3]
  Bmax: 39800

B13: v29456-MT-GGFG-AM-Compound 136 DAR 8 (antibody, human IgG1, kappa)
heavy: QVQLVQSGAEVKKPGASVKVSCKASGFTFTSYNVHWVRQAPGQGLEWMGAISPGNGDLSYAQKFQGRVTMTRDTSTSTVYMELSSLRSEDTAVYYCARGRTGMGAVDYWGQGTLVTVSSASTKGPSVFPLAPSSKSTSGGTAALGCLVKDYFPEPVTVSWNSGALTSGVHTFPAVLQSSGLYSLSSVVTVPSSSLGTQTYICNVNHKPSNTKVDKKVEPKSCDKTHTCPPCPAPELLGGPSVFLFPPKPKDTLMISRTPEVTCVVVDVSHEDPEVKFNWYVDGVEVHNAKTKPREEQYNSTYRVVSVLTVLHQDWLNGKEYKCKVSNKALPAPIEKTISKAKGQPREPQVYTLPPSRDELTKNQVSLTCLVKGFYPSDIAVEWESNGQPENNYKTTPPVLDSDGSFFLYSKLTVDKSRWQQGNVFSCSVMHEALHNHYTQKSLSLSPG
light: DVQMTQSPSSLSASVGDRVTITCRASQDVYSYLNWYQQKPGKAVKLLIYYTSRLQSGVPSRFSGSGSGTDYTLTISSLQPEDFATYYCQQYNIFPWTFGQGTKLEIKRTVAAPSVFIFPPSDEQLKSGTASVVCLLNNFYPREAKVQWKVDNALQSGNSQESVTEQDSKDSTYSLSSTLTLSKADYEKHKVYACEVTHQGLSSPVTKSFNRGEC
modifications: drug-linker MT-GGFG-AM-Compound 136 on cysteine thiols after TCEP reduction, positions not given; DAR 8 for the whole antibody
[4]
  EC50, in vitro cytotoxicity, 2D monolayer, HCC-78: 0.43 nM
  EC50, in vitro cytotoxicity, 2D monolayer, IGROV-1: 4.48 nM

B14: v29456-MT-GGFG-Compound 148 DAR 8 (antibody, human IgG1, kappa)
heavy: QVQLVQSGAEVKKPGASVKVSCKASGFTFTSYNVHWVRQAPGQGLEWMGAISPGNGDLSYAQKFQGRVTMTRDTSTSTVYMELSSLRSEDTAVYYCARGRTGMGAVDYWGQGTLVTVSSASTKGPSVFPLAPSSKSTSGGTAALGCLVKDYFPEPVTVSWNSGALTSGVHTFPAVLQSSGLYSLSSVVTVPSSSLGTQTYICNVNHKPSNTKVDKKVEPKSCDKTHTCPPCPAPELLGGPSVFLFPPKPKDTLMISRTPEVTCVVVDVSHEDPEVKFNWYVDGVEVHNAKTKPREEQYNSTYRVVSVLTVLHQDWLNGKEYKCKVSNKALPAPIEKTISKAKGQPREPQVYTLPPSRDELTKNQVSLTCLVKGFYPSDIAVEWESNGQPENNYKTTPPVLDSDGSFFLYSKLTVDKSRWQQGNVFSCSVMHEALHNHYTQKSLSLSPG
light: B13 light
modifications: drug-linker MT-GGFG-Compound 148 on cysteine thiols after TCEP reduction, positions not given; DAR 8 for the whole antibody
[4]
  EC50, in vitro cytotoxicity, 2D monolayer, HCC-78: 1.98 nM

B15: v29456-MC-GGFG-AM-DXd1 DAR 8 (antibody, human IgG1, kappa)
heavy: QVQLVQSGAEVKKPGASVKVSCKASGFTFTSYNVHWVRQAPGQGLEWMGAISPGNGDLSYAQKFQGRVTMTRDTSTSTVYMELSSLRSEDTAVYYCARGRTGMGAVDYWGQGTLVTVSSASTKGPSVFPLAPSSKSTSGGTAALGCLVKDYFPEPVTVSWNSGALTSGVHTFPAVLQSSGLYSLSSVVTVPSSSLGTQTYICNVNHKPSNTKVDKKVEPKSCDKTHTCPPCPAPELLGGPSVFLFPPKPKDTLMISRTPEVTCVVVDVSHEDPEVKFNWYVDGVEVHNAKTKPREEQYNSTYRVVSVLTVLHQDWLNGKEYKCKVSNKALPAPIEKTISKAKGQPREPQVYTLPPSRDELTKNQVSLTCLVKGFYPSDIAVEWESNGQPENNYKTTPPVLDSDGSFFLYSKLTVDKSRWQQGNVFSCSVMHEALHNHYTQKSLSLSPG
light: B13 light
modifications: drug-linker MC-GGFG-AM-DXd1 on cysteine thiols after TCEP reduction, positions not given; DAR 8 for the whole antibody
[4]
  EC50, in vitro cytotoxicity, 2D monolayer, HCC-78: 0.55 nM
  EC50, in vitro cytotoxicity, 2D monolayer, IGROV-1: 0.45 nM
[5]
  EC50, in vitro cytotoxicity, HCC-78 spheroids: 0.6 nM
  EC50, in vitro cytotoxicity, IGROV-1 spheroids: 0.27 nM

B16: v29456-MT-GGFG-AM-Compound 141 DAR 8 (antibody, human IgG1, kappa)
heavy: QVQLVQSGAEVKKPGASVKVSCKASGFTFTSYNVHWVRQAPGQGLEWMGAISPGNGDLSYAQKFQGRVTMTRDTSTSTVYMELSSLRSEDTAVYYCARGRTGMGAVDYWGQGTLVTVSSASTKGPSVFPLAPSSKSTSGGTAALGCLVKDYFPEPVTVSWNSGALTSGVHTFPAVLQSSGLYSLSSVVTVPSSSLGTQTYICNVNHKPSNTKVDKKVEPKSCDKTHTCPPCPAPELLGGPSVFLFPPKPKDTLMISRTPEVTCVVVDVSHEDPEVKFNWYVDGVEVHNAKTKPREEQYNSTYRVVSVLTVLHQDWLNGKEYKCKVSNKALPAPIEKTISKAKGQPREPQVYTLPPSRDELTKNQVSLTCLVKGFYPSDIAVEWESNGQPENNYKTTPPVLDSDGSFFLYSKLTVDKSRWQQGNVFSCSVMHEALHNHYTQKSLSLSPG
light: B13 light
modifications: drug-linker MT-GGFG-AM-Compound 141 on cysteine thiols after TCEP reduction, positions not given; DAR 8 for the whole antibody
[4]
  EC50, in vitro cytotoxicity, 2D monolayer, HCC-78: 0.26 nM
  EC50, in vitro cytotoxicity, 2D monolayer, IGROV-1: 1.56 nM
[5]
  EC50, in vitro cytotoxicity, HCC-78 spheroids: 0.33 nM
  EC50, in vitro cytotoxicity, IGROV-1 spheroids: 0.21 nM

B17: v29456-MT-GGFG-AM-Compound 129 DAR 8 (antibody, human IgG1, kappa)
heavy: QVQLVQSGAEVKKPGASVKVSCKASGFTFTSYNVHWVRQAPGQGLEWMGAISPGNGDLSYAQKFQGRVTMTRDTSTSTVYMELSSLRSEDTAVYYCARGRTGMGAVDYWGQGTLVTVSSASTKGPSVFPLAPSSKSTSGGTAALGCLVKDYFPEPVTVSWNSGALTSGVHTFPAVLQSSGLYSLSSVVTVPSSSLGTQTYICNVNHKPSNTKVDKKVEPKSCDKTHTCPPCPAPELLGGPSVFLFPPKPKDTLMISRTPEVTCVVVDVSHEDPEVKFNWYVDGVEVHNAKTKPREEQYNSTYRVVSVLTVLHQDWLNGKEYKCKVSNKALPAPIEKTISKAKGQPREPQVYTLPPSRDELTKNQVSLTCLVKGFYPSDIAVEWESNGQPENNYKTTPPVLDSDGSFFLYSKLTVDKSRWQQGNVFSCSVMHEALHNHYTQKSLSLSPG
light: B13 light
modifications: drug-linker MT-GGFG-AM-Compound 129 on cysteine thiols after TCEP reduction, positions not given; DAR 8 for the whole antibody
[4]
  EC50, in vitro cytotoxicity, 2D monolayer, HCC-78: 0.42 nM
  EC50, in vitro cytotoxicity, 2D monolayer, IGROV-1: 1.11 nM

B18: v29456-MT-GGFG-Compound 140 DAR 8 (antibody, human IgG1, kappa)
heavy: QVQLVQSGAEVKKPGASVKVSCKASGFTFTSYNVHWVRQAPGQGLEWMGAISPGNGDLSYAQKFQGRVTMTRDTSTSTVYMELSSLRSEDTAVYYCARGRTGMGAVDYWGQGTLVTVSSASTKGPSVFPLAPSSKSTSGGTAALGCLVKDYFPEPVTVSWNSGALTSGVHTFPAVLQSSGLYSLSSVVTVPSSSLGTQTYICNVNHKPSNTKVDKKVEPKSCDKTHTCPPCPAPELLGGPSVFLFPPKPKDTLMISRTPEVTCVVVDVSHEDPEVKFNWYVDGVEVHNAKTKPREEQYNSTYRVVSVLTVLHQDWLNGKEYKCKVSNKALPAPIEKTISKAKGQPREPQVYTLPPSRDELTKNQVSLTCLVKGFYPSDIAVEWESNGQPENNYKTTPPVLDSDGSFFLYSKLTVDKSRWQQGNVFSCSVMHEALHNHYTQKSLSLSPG
light: B13 light
modifications: drug-linker MT-GGFG-Compound 140 on cysteine thiols after TCEP reduction, positions not given; DAR 8 for the whole antibody
[4]
  EC50, in vitro cytotoxicity, 2D monolayer, HCC-78: 0.6 nM
[5]
  EC50, in vitro cytotoxicity, HCC-78 spheroids: 0.19 nM
  EC50, in vitro cytotoxicity, IGROV-1 spheroids: 0.25 nM

B19: v29456-MC-GGFG-Compound 141 DAR 3.4 (antibody, human IgG1, kappa)
heavy: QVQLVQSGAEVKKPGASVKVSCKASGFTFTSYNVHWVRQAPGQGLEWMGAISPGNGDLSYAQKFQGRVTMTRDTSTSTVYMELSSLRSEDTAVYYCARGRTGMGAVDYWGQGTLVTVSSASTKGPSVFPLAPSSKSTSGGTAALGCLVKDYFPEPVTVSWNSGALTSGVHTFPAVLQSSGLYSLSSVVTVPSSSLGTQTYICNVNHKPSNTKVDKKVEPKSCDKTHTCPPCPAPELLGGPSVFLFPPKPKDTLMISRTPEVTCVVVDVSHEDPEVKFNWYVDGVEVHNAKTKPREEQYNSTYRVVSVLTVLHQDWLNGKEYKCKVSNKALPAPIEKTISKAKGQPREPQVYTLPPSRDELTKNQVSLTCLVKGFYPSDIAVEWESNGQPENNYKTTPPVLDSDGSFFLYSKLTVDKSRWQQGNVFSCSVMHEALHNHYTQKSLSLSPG
light: B13 light
modifications: drug-linker MC-GGFG-Compound 141 on cysteine thiols after TCEP reduction, positions not given; DAR 3.4 for the whole antibody
[6]
  EC50, in vitro cytotoxicity, IGROV-1 spheroids: 1.31 nM
  EC50, in vitro cytotoxicity, TOV-21G:HDFa (1:1) spheroids: 0.99 nM
[7]
  EC50, in vitro cytotoxicity, 2D monolayer, IGROV-1: 16.4 nM

B20: v29456-MT-GGFG-AM-Compound 139 DAR 8 (antibody, human IgG1, kappa)
heavy: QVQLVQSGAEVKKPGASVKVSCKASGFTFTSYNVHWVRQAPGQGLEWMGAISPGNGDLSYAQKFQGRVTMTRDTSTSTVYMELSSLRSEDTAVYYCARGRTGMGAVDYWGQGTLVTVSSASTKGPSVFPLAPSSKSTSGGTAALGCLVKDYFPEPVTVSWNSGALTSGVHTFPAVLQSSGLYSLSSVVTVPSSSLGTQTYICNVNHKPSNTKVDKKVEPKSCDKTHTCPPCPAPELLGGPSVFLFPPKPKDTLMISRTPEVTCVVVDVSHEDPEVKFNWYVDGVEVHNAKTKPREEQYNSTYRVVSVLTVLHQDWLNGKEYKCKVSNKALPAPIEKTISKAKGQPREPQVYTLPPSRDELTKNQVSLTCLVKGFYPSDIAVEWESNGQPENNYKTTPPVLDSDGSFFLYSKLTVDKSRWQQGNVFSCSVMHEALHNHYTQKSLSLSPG
light: B13 light
modifications: drug-linker MT-GGFG-AM-Compound 139 on cysteine thiols after TCEP reduction, positions not given; DAR 8 for the whole antibody
[4]
  EC50, in vitro cytotoxicity, 2D monolayer, HCC-78: 0.65 nM
  EC50, in vitro cytotoxicity, 2D monolayer, IGROV-1: 1.71 nM
[5]
  EC50, in vitro cytotoxicity, HCC-78 spheroids: 0.82 nM
  EC50, in vitro cytotoxicity, IGROV-1 spheroids: 0.37 nM

B21: v29456-MC-GGFG-Compound 141 DAR 8 (antibody, human IgG1, kappa)
heavy: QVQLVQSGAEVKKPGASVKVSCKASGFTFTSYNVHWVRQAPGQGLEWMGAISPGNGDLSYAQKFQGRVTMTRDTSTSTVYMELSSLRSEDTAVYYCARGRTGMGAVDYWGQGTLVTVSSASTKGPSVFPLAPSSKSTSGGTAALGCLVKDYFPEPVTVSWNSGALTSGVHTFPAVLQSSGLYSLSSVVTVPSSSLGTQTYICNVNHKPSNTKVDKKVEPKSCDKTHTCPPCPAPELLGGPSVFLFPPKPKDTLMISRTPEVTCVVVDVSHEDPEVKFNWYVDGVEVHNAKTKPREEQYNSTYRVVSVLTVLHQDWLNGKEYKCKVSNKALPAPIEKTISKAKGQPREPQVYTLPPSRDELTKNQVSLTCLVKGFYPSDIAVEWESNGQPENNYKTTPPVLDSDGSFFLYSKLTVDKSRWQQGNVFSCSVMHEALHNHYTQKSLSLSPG
light: B13 light
modifications: drug-linker MC-GGFG-Compound 141 on cysteine thiols after TCEP reduction, positions not given; DAR 8.0 for the whole antibody
[6]
  EC50, in vitro cytotoxicity, IGROV-1 spheroids: 0.44 nM
  EC50, in vitro cytotoxicity, TOV-21G:HDFa (1:1) spheroids: 0.9 nM
[7]
  EC50, in vitro cytotoxicity, 2D monolayer, IGROV-1: 3.01 nM
  EC50, in vitro cytotoxicity, 2D monolayer, TOV-21G: 0.93 nM

B22: v29456-MC-GGFG-AM-Compound 139 DAR 3.4 (antibody, human IgG1, kappa)
heavy: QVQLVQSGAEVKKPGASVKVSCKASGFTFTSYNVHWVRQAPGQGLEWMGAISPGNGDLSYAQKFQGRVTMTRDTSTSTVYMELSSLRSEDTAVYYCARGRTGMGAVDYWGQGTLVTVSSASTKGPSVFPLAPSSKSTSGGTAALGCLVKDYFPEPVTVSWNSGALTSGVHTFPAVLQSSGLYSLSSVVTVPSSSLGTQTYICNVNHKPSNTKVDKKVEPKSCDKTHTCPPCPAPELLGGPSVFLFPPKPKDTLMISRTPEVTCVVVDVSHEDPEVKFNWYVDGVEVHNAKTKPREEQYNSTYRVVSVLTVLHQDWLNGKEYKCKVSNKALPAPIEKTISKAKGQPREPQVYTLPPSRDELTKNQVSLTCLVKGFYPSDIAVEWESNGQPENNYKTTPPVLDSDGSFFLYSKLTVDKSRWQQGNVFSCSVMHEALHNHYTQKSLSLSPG
light: B13 light
modifications: drug-linker MC-GGFG-AM-Compound 139 on cysteine thiols after TCEP reduction, positions not given; DAR 3.4 for the whole antibody
[6]
  EC50, in vitro cytotoxicity, IGROV-1 spheroids: 0.88 nM
  EC50, in vitro cytotoxicity, TOV-21G:HDFa (1:1) spheroids: 0.76 nM
[7]
  EC50, in vitro cytotoxicity, 2D monolayer, IGROV-1: 5.46 nM
